Results from patent US20090163698A1, “Method for Preparing Antibody Conjugates” (priority 2007, published 2009).

Target: human αVβ3/5 integrin (human) (UniProt P06756)
Test: cell-based or functional assay
Parameters: IC50 of doxorubicin, cell viability, colon cancer HT29 cells, targeted liposomes 40:1 / IC50 of doxorubicin, cell viability, colon cancer HT29 cells, targeted liposomes 90:1 / IC50 of doxorubicin, cell viability, melanoma A375.S2 cells, targeted liposomes 40:1 / IC50 of doxorubicin, cell viability, melanoma A375.S2 cells, targeted liposomes 90:1 / IC50 of doxorubicin, cell viability, ovarian cancer A2780 cells, targeted liposomes 40:1 / IC50 of doxorubicin, cell viability, ovarian cancer A2780 cells, targeted liposomes 90:1: unit not given beside the values

Sequence of human αVβ3/5 integrin (human) (P06756 31-1048): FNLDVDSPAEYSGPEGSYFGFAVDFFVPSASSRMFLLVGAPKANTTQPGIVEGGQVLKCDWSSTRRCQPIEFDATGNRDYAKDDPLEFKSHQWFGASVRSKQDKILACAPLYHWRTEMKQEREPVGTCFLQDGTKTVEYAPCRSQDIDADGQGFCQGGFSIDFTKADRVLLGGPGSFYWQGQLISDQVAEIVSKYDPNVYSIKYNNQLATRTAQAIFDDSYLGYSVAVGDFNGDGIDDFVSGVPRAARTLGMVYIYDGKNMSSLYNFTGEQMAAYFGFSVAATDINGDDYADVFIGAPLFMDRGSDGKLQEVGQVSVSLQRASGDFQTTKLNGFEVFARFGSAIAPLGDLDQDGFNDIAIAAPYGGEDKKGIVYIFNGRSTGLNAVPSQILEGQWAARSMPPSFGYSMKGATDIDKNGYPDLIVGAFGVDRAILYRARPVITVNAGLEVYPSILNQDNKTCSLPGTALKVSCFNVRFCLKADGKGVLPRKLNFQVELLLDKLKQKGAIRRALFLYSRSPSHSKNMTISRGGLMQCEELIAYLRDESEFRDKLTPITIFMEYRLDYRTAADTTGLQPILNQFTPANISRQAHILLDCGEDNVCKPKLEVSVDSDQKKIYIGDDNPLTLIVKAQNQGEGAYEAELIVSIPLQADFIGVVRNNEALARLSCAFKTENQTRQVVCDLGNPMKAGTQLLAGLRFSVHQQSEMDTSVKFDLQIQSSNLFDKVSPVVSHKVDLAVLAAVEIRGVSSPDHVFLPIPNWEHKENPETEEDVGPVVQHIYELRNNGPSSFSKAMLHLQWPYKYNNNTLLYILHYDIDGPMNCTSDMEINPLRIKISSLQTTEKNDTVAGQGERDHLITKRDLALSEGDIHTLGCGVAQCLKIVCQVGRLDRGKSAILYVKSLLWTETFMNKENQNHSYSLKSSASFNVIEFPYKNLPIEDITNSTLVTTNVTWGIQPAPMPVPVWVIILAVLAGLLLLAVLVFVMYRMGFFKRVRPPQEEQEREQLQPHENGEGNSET

CNTO 95 Fab′ (anti-alpha-V Fab′ made by pepsin cleavage of the parent antibody, reduction and reoxidation), conjugated to MalPEG-DSPE on the surface of liposomes
IC50 of doxorubicin, cell viability, colon cancer HT29 cells, targeted liposomes 40:1: 180
IC50 of doxorubicin, cell viability, colon cancer HT29 cells, targeted liposomes 90:1: > 200
IC50 of doxorubicin, cell viability, melanoma A375.S2 cells, targeted liposomes 40:1: 15
IC50 of doxorubicin, cell viability, melanoma A375.S2 cells, targeted liposomes 90:1: 7
IC50 of doxorubicin, cell viability, ovarian cancer A2780 cells, targeted liposomes 40:1: 12
IC50 of doxorubicin, cell viability, ovarian cancer A2780 cells, targeted liposomes 90:1: 7
Increase (ratio of IC50 of liposome-entrapped doxorubicin to IC50 of 90:1 targeted liposomes), A375.S2 cells: 29 fold
Increase (ratio of IC50 of liposome-entrapped doxorubicin to IC50 of 90:1 targeted liposomes), A549 cells: 1 fold
Increase (ratio of IC50 of liposome-entrapped doxorubicin to IC50 of 90:1 targeted liposomes), A2780 cells: 29 fold
Increase (ratio of IC50 of liposome-entrapped doxorubicin to IC50 of 90:1 targeted liposomes), HT29 cells: 1.1 fold
Increase (ratio of IC50 of liposome-entrapped doxorubicin to IC50 of 90:1 targeted liposomes), MDA-MB-231 cells: 5 fold
